Reference: article PMC9352346

B1: Arl15-AL-Myc [human] / GST-Smad4 [not stated] (parent)
chain 1: MSDLRITEAFLYMDYLCFRALCCKGPPPARPEYDLVCIGLTGSGKTSLLSKLCSESPDNVVSTTGFSIKAVPFQNAILNVKELGGLDNIRKYWSRYYQGSQGVIFVLDSASSEDDLEAARNELHSALQHPQLCTLPFLILANHQDKPAARSVQEIKKYFELEPLARGKRWILQPCSLDDMDALKDSFSQLINLLEEKDHEAVRM
chain 2: MDNMSITNTPTSNDACLSIVHSLMCHRQGGESETFAKRAIESLVKKLKEKKDELDSLITAITTNGAHPSKCVTIQRTLDGRLQVAGRKGFPHVIYARLWRWPDLHKNELKHVKYCQYAFDLKCDSVCVNPYHYERVVSPGIDLSGLTLQSNAPSSMMVKDEYVHDFEGQPSLSTEGHSIQTIQHPPSNRASTETYSTPALLAPSESNATSTANFPNIPVASTSQPASILGGSHSEGLLQIASGPQPGQQQNGFTGQPATYHHNSTTTWTGSRTAPYTPNLPHHQNGHLQHHPPMPPHPGHYWPVHNELAFQPPISNHPAPEYWCSIAYFEMDVQVGETFKVPSSCPIVTVDGYVDPSGGDRFCLGQLSNVHRTEAIERARLHIGKGVQLECKGEGDVWVRCLSDHAVFVQSYYLDREAGRAPGDAVHKIYPSAYIKVFDLRQCHRQMQQQAATAQAAAAAQAAAVAGNIPGPGSVGGIAPAISLSAAAGIGVDDLRRLCILRMSFVKGWGPDYPRQSIKETPCWIEIHLHRALQLLDEVLHTMPIADPQPLD

Variants of: B1
Test: GST pull-down, immunoblot band quantification
Conditions: with GST-Smad4; HeLa cell lysates; bead-immobilized GST-Smad4; parent: 100

| Variant | percent of parent |
| --- | --- |
| chain 1 R90L | 22 |
| chain 1 E82K | 95 |

Further lines, results first:

| percent of parent | Variant |
| --- | --- |
| 47 | chain 1 Y96F |
| 38 | chain 1 R95C |
